Positions count from the first letter of the chain named. Blank lines part the entries; values can stand above or below the binder they belong to. Where no end group is shown, it is not given here.
How the values were obtained:
[1] = biological target: T1, λD-Base display phage (gpD fused to basic aptamer [Gly-Arg]4) (bacteriophage lambda), P03712; experiment: apparent KD, calculated as the concentration of free peptide that results in an IC50 in the λD-Acid:λD-Base co-infection assay
T1 chain: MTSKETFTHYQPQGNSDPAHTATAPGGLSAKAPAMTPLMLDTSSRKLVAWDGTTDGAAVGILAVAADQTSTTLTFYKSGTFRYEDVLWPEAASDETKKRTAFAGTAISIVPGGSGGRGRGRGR

[2] = biological target: T1, λD-Base display phage (gpD fused to …); experiment: competition: free peptide titrates λD-Acid:λD-Base co-infection (MOI 0.0025), loss of double resistant multilysogens
[3] = biological target: T2, λD-Acid display phage (gpD fused to acidic aptamer [Gly-Glu]4) (bacteriophage lambda), P03712; experiment: apparent KD, calculated as the concentration of free peptide that results in an IC50 in the λD-Acid:λD-Base co-infection assay
T2 chain: T1 chain with R117E, R119E, R121E, R123E

[4] = biological target: T2, λD-Acid display phage (gpD fused to …); experiment: competition: free peptide titrates λD-Acid:λD-Base co-infection (MOI 0.0025), loss of double resistant multilysogens

- Kd [1]: 10 nM
- IC50 [2]: 10 nM
B1: Acidic Aptamer (free synthetic peptide [Gly-Glu]4) (peptide)
peptide: GEGEGEGE
modifications: not fully specified

- Kd [3]: 10 nM
- IC50 [4]: 10 nM
B2: Basic Aptamer (free synthetic peptide [Gly-Arg]4) (peptide)
peptide: GRGRGRGR
modifications: not fully specified

From US20100022402A1, “Methods and Compositions for the In Vitro High-Throughput Detection of Protein/Protein Interactions” (priority 2004, published 2010)
